Test results taken from the Human Domainome abundance scans (Beltran et al. 2025).
± gives the uncertainty stated by the source.

B1: Zinc finger homeobox protein 3, residues 2147 to 2202; numbered along this chain, Q15911 (parent)
chain: RPRTRITDDQLRVLRQYFDINNSPSEEQIKEMADKSGLPQKVIKHWFRNTLFKERQ

Variants of: B1
Experiment: abundance fitness (aPCA) (normalised: wild type 0, dead -1); higher = more abundant; growth selection in yeast, the domain comes from the species named
Details: Homo sapiens
In the case of S25F, the abundance fitness is reported as -0.623 ± 0.15.
K53P gave an abundance fitness of -0.192 ± 0.12.
In the case of V42C, the abundance fitness is reported as 0.058 ± 0.1.
E31T gave an abundance fitness of -0.011 ± 0.11.
For Q40P, the abundance fitness was 0.121 ± 0.1.
S25P gave an abundance fitness of -0.191 ± 0.099.
N21D gave an abundance fitness of -0.102 ± 0.13.
Work on E26W yielded an abundance fitness of -0.265 ± 0.084.
In the case of L51P, the abundance fitness is reported as -0.224 ± 0.11.
For T4D, the abundance fitness was 0.029 ± 0.14.
R5V gave an abundance fitness of 0.129 ± 0.07.
In the case of N22I, the abundance fitness is reported as -0.052 ± 0.14.
Work on R48W yielded an abundance fitness of -0.306 ± 0.089.
With L14M the abundance fitness was 0.058 ± 0.1.
R12V showed an abundance fitness of 0.04 ± 0.065.
In the case of F52T, the abundance fitness is reported as 0.181 ± 0.12.
S23R showed an abundance fitness of -0.085 ± 0.073.
Variant N49S has an abundance fitness of -0.06 ± 0.11.
In the case of K41I, the abundance fitness is reported as -0.022 ± 0.2.
D19L showed an abundance fitness of 0.032 ± 0.075.
Q40V gave an abundance fitness of -0.046 ± 0.084.
P2D gave an abundance fitness of 0.38 ± 0.14.
N22V gave an abundance fitness of -0.022 ± 0.071.
For Q10E, the abundance fitness was -0.394 ± 0.08.
R1P showed an abundance fitness of -0.165 ± 0.26.
F47D gave an abundance fitness of -0.819 ± 0.19.
Variant R5C has an abundance fitness of 0.076 ± 0.093.
In the case of F47W, the abundance fitness is reported as -0.188 ± 0.11.
Variant R48T has an abundance fitness of -0.07 ± 0.12.
Work on I29W yielded an abundance fitness of -0.387 ± 0.1.
T7Q gave an abundance fitness of -0.253 ± 0.088.
Y17N showed an abundance fitness of -0.095 ± 0.12.
Work on Y17M yielded an abundance fitness of 0.083 ± 0.081.
E27Y showed an abundance fitness of -0.08 ± 0.13.
Y17H showed an abundance fitness of -0.127 ± 0.12.
Variant K41W has an abundance fitness of -0.361 ± 0.12.
For R55Q, the abundance fitness was -0.054 ± 0.12.
R5H showed an abundance fitness of 0.074 ± 0.083.
For N49D, the abundance fitness was 0.001 ± 0.15.
E54T gave an abundance fitness of -0.048 ± 0.13.
Variant G37M has an abundance fitness of -0.341 ± 0.12.
Variant P39M has an abundance fitness of -0.258 ± 0.097.
Work on E26K yielded an abundance fitness of -0.016 ± 0.098.
In the case of Y17A, the abundance fitness is reported as -0.165 ± 0.077.
I20H showed an abundance fitness of -0.001 ± 0.19.
In the case of I20C, the abundance fitness is reported as 0.1 ± 0.085.
With R1C the abundance fitness was -0.134 ± 0.21.
With W46S the abundance fitness was -0.83 ± 0.13.
With L38E the abundance fitness was -0.706 ± 0.11.
Variant Q10R has an abundance fitness of -0.605 ± 0.066.
Work on V13E yielded an abundance fitness of -0.01 ± 0.1.
Variant I29D has an abundance fitness of -1.17 ± 0.26.
For L14K, the abundance fitness was -1.03 ± 0.18.
E31Q showed an abundance fitness of -0.507 ± 0.16.
Variant N49G has an abundance fitness of -0.124 ± 0.096.
Work on D8P yielded an abundance fitness of 0.149 ± 0.095.
Variant T4Y has an abundance fitness of -0.005 ± 0.2.
In the case of S25K, the abundance fitness is reported as -0.045 ± 0.1.
In the case of W46E, the abundance fitness is reported as -0.348 ± 0.17.
Work on D8Q yielded an abundance fitness of 0.061 ± 0.092.
For K35Q, the abundance fitness was 0.014 ± 0.14.
With L11Y the abundance fitness was -0.297 ± 0.12.
S25Y gave an abundance fitness of -0.382 ± 0.14.
P2V gave an abundance fitness of 0.018 ± 0.09.
In the case of K53Q, the abundance fitness is reported as 0.055 ± 0.095.
R15P showed an abundance fitness of -0.898 ± 0.091.
For K30Q, the abundance fitness was -0.323 ± 0.11.
Variant E54Y has an abundance fitness of -0.277 ± 0.15.
Work on E26I yielded an abundance fitness of 0.086 ± 0.12.
E27A gave an abundance fitness of 0.027 ± 0.072.
In the case of N49I, the abundance fitness is reported as -0.236 ± 0.17.
Variant T50K has an abundance fitness of 0.094 ± 0.17.
P24F showed an abundance fitness of -0.746 ± 0.15.
Variant V42M has an abundance fitness of -0.218 ± 0.15.
In the case of R48Q, the abundance fitness is reported as 0.008 ± 0.12.
For Q28D, the abundance fitness was -0.278 ± 0.14.
R1I gave an abundance fitness of -0.433 ± 0.46.
Y17S gave an abundance fitness of -0.207 ± 0.074.
In the case of G37R, the abundance fitness is reported as -0.071 ± 0.077.
In the case of Q28K, the abundance fitness is reported as -0.327 ± 0.12.
With R1Y the abundance fitness was 0.022 ± 0.28.
S36K gave an abundance fitness of -0.706 ± 0.12.
Variant V42A has an abundance fitness of -0.098 ± 0.11.
For D19M, the abundance fitness was 0.044 ± 0.1.
Work on R1M yielded an abundance fitness of -0.573 ± 0.2.
In the case of Q16S, the abundance fitness is reported as 0.122 ± 0.076.
With K44G the abundance fitness was -0.11 ± 0.082.
Variant E54I has an abundance fitness of 0.235 ± 0.38.
For W46F, the abundance fitness was -0.163 ± 0.18.
L38I gave an abundance fitness of -0.124 ± 0.22.
In the case of M32V, the abundance fitness is reported as -0.164 ± 0.092.
For K30P, the abundance fitness was -0.679 ± 0.14.
With E31M the abundance fitness was -0.133 ± 0.16.
With K35C the abundance fitness was -0.382 ± 0.12.
In the case of N49K, the abundance fitness is reported as 0.06 ± 0.13.
S23W gave an abundance fitness of -0.243 ± 0.09.
For D34T, the abundance fitness was 0.053 ± 0.11.
For N21V, the abundance fitness was -0.171 ± 0.071.
F52I showed an abundance fitness of -0.296 ± 0.16.
For E27H, the abundance fitness was -0.147 ± 0.13.
I20Y showed an abundance fitness of -0.237 ± 0.12.
K35A gave an abundance fitness of -0.279 ± 0.097.
T4L showed an abundance fitness of -0.11 ± 0.094.
N22H gave an abundance fitness of 0.219 ± 0.15.
With T7L the abundance fitness was -0.273 ± 0.077.
Work on K53R yielded an abundance fitness of -0.033 ± 0.068.
L11M gave an abundance fitness of -0.04 ± 0.098.
Variant R5K has an abundance fitness of 0.093 ± 0.1.
Variant P39N has an abundance fitness of -0.249 ± 0.22.
For F52C, the abundance fitness was 0.01 ± 0.14.
With N49H the abundance fitness was -0.451 ± 0.29.
D9W showed an abundance fitness of -0.171 ± 0.078.
Work on K44M yielded an abundance fitness of -0.2 ± 0.14.
K44T showed an abundance fitness of -0.246 ± 0.11.
Variant N49M has an abundance fitness of -0.093 ± 0.13.
With T4W the abundance fitness was -1.13 ± 0.16.
M32F gave an abundance fitness of -0.383 ± 0.23.
L38F gave an abundance fitness of -0.762 ± 0.18.
In the case of V42D, the abundance fitness is reported as 0.094 ± 0.15.
With I20D the abundance fitness was -0.087 ± 0.1.
P2M showed an abundance fitness of 0.171 ± 0.19.
Variant Q16L has an abundance fitness of -0.091 ± 0.076.
In the case of I29R, the abundance fitness is reported as -0.507 ± 0.073.
H45D gave an abundance fitness of 0.109 ± 0.12.
R12Q gave an abundance fitness of -0.082 ± 0.086.
L11D showed an abundance fitness of -0.182 ± 0.14.
With K35I the abundance fitness was -0.329 ± 0.14.
With H45Y the abundance fitness was -0.036 ± 0.12.
K44V showed an abundance fitness of -0.107 ± 0.084.
For T4V, the abundance fitness was -0.13 ± 0.089.
P39I gave an abundance fitness of -0.199 ± 0.16.
Work on I43R yielded an abundance fitness of -1.21 ± 0.12.
In the case of Q40R, the abundance fitness is reported as 0.022 ± 0.071.
In the case of D19F, the abundance fitness is reported as -0.171 ± 0.12.
In the case of N21A, the abundance fitness is reported as -0.008 ± 0.074.
F18V showed an abundance fitness of -0.333 ± 0.072.
With I6P the abundance fitness was -0.108 ± 0.12.
In the case of P2E, the abundance fitness is reported as 0.184 ± 0.14.
Q40E showed an abundance fitness of 0.105 ± 0.13.
Work on N49V yielded an abundance fitness of -0.053 ± 0.1.
E26T showed an abundance fitness of -0.057 ± 0.091.
With S25I the abundance fitness was -0.361 ± 0.15.
E31D showed an abundance fitness of 0.047 ± 0.12.
E31V gave an abundance fitness of -0.079 ± 0.083.
H45E gave an abundance fitness of 0.106 ± 0.099.
Work on T50P yielded an abundance fitness of -0.335 ± 0.16.
Variant E27G has an abundance fitness of -0.071 ± 0.065.
For I43G, the abundance fitness was -1 ± 0.088.
Work on L14E yielded an abundance fitness of -0.947 ± 0.12.
I43E showed an abundance fitness of -0.767 ± 0.12.
Variant F52M has an abundance fitness of 0.101 ± 0.12.
Work on F18Y yielded an abundance fitness of 0.016 ± 0.14.
Work on Q16V yielded an abundance fitness of -0.162 ± 0.074.
With E54C the abundance fitness was -0.149 ± 0.11.
With Q10A the abundance fitness was -0.263 ± 0.07.
In the case of I20Q, the abundance fitness is reported as -0.019 ± 0.096.
L14Q showed an abundance fitness of -1.13 ± 0.15.
S25C gave an abundance fitness of -0.244 ± 0.12.
For W46Y, the abundance fitness was -0.439 ± 0.21.
Variant E26H has an abundance fitness of -0.001 ± 0.11.
Work on T7S yielded an abundance fitness of 0.054 ± 0.079.
Variant I43A has an abundance fitness of -0.534 ± 0.089.
Work on T4G yielded an abundance fitness of -0.256 ± 0.083.
With D19I the abundance fitness was -0.051 ± 0.1.
N21G gave an abundance fitness of -0.153 ± 0.077.
For E31K, the abundance fitness was -0.017 ± 0.16.
E31A gave an abundance fitness of -0.151 ± 0.085.
